Source: the RNAGym collection of RNA variant scans (doi:10.1021/acssynbio.7b00057)

B1: Pistol ribozyme (parent)
chain: GGGUCGUUGUUCCAUAAUCGCGUGGAUAUGGCACGCAAGUUUCUACCGGGCACCGUAAAUGUCCGACUGGAGCCGUUCGGGCGGCUAUAAACAGACCUCAGGCCCGAAGCGUGGCGGCACCUGCCGCCGGUGGUAAAAAAGAUCGGAAGAGCACACGUCU

Variants of: B1
Assay: aptazyme ON/OFF ratio, guanine; higher = stronger switching; co-transcriptional cleavage with and without guanine

| Variant | aptazyme ON/OFF ratio |
| --- | --- |
| GGGUCGGGACUAAAUAAUCGCGUGGAUAUGGCACGCAAGUUUCUACCGGGCACCGUAAAUGUCCGACUGGAGCCGUUCGGGCGGCUAUAAACAGACCUCAGGCCCGAAGCGUGGCGGCACCUGCCGCCGGUGGUAAAAAAGAUCGGAAGAGCACACGUCU [U7G U8G G9A U10C C12A C13A] | 1.13 |
| GGGUCGAGUUAAGAUAAUCGCGUGGAUAUGGCACGCAAGUUUCUACCGGGCACCGUAAAUGUCCGACUGGAGCCGUUCGGGCGGCUAUAAACAGACCUCAGGCCCGAAGCGUGGCGGCACCUGCCGCCGGUGGUAAAAAAGAUCGGAAGAGCACACGUCU [U7A U8G G9U U11A C12A C13G] | 1.38 |
| GGGUCGAGUUUCAAUAAUCGCGUGGAUAUGGCACGCAAGUUUCUACCGGGCACCGUAAAUGUCCGACUGGAGCCGUUCGGGCGGCUAUAAACAGACCUCAGGCCCGAAGCGUGGCGGCACCUGCCGCCGGUGGUAAAAAAGAUCGGAAGAGCACACGUCU [U7A U8G G9U C13A] | 1.25 |
| GGGUCGAGGCAUCAUAAUCGCGUGGAUAUGGCACGCAAGUUUCUACCGGGCACCGUAAAUGUCCGACUGGAGCCGUUCGGGCGGCUAUAAACAGACCUCAGGCCCGAAGCGUGGCGGCACCUGCCGCCGGUGGUAAAAAAGAUCGGAAGAGCACACGUCU [U7A U8G U10C U11A C12U] | 1.27 |
| GGGUCGGGACAAAAUAAUCGCGUGGAUAUGGCACGCAAGUUUCUACCGGGCACCGUAAAUGUCCGACUGGAGCCGUUCGGGCGGCUAUAAACAGACCUCAGGCCCGAAGCGUGGCGGCACCUGCCGCCGGUGGUAAAAAAGAUCGGAAGAGCACACGUCU [U7G U8G G9A U10C U11A C12A C13A] | 1.2 |
| GGGUCGACAUCAAAUAAUCGCGUGGAUAUGGCACGCAAGUUUCUACCGGGCACCGUAAAUGUCCGACUGGAGCCGUUCGGGCGGCUAUAAACAGACCUCAGGCCCGAAGCGUGGCGGCACCUGCCGCCGGUGGUAAAAAAGAUCGGAAGAGCACACGUCU [U7A U8C G9A U11C C12A C13A] | 1.19 |
| GGGUCGAUAGAGAAUAAUCGCGUGGAUAUGGCACGCAAGUUUCUACCGGGCACCGUAAAUGUCCGACUGGAGCCGUUCGGGCGGCUAUAAACAGACCUCAGGCCCGAAGCGUGGCGGCACCUGCCGCCGGUGGUAAAAAAGAUCGGAAGAGCACACGUCU [U7A G9A U10G U11A C12G C13A] | 1.12 |
| GGGUCGGCCCGAUAUAAUCGCGUGGAUAUGGCACGCAAGUUUCUACCGGGCACCGUAAAUGUCCGACUGGAGCCGUUCGGGCGGCUAUAAACAGACCUCAGGCCCGAAGCGUGGCGGCACCUGCCGCCGGUGGUAAAAAAGAUCGGAAGAGCACACGUCU [U7G U8C G9C U10C U11G C12A C13U] | 1.1 |
| GGGUCGUUCGAACAUAAUCGCGUGGAUAUGGCACGCAAGUUUCUACCGGGCACCGUAAAUGUCCGACUGGAGCCGUUCGGGCGGCUAUAAACAGACCUCAGGCCCGAAGCGUGGCGGCACCUGCCGCCGGUGGUAAAAAAGAUCGGAAGAGCACACGUCU [G9C U10G U11A C12A] | 1.31 |
| GGGUCGGCAAAUUAUAAUCGCGUGGAUAUGGCACGCAAGUUUCUACCGGGCACCGUAAAUGUCCGACUGGAGCCGUUCGGGCGGCUAUAAACAGACCUCAGGCCCGAAGCGUGGCGGCACCUGCCGCCGGUGGUAAAAAAGAUCGGAAGAGCACACGUCU [U7G U8C G9A U10A U11A C12U C13U] | 1.14 |
| GGGUCGCCAAAUCAUAAUCGCGUGGAUAUGGCACGCAAGUUUCUACCGGGCACCGUAAAUGUCCGACUGGAGCCGUUCGGGCGGCUAUAAACAGACCUCAGGCCCGAAGCGUGGCGGCACCUGCCGCCGGUGGUAAAAAAGAUCGGAAGAGCACACGUCU [U7C U8C G9A U10A U11A C12U] | 1.41 |
| GGGUCGGGUAAUCAUAAUCGCGUGGAUAUGGCACGCAAGUUUCUACCGGGCACCGUAAAUGUCCGACUGGAGCCGUUCGGGCGGCUAUAAACAGACCUCAGGCCCGAAGCGUGGCGGCACCUGCCGCCGGUGGUAAAAAAGAUCGGAAGAGCACACGUCU [U7G U8G G9U U10A U11A C12U] | 1.31 |
| GGGUCGUGCCCAAAUAAUCGCGUGGAUAUGGCACGCAAGUUUCUACCGGGCACCGUAAAUGUCCGACUGGAGCCGUUCGGGCGGCUAUAAACAGACCUCAGGCCCGAAGCGUGGCGGCACCUGCCGCCGGUGGUAAAAAAGAUCGGAAGAGCACACGUCU [U8G G9C U10C U11C C12A C13A] | 1.02 |
| GGGUCGCCUAGUCAUAAUCGCGUGGAUAUGGCACGCAAGUUUCUACCGGGCACCGUAAAUGUCCGACUGGAGCCGUUCGGGCGGCUAUAAACAGACCUCAGGCCCGAAGCGUGGCGGCACCUGCCGCCGGUGGUAAAAAAGAUCGGAAGAGCACACGUCU [U7C U8C G9U U10A U11G C12U] | 1.11 |
| GGGUCGCCUCAUCAUAAUCGCGUGGAUAUGGCACGCAAGUUUCUACCGGGCACCGUAAAUGUCCGACUGGAGCCGUUCGGGCGGCUAUAAACAGACCUCAGGCCCGAAGCGUGGCGGCACCUGCCGCCGGUGGUAAAAAAGAUCGGAAGAGCACACGUCU [U7C U8C G9U U10C U11A C12U] | 1.26 |
| GGGUCGUUAUUACAUAAUCGCGUGGAUAUGGCACGCAAGUUUCUACCGGGCACCGUAAAUGUCCGACUGGAGCCGUUCGGGCGGCUAUAAACAGACCUCAGGCCCGAAGCGUGGCGGCACCUGCCGCCGGUGGUAAAAAAGAUCGGAAGAGCACACGUCU [G9A C12A] | 1.92 |
| GGGUCGAGAAAAUAUAAUCGCGUGGAUAUGGCACGCAAGUUUCUACCGGGCACCGUAAAUGUCCGACUGGAGCCGUUCGGGCGGCUAUAAACAGACCUCAGGCCCGAAGCGUGGCGGCACCUGCCGCCGGUGGUAAAAAAGAUCGGAAGAGCACACGUCU [U7A U8G G9A U10A U11A C12A C13U] | 1.29 |
| GGGUCGUAGCGGCAUAAUCGCGUGGAUAUGGCACGCAAGUUUCUACCGGGCACCGUAAAUGUCCGACUGGAGCCGUUCGGGCGGCUAUAAACAGACCUCAGGCCCGAAGCGUGGCGGCACCUGCCGCCGGUGGUAAAAAAGAUCGGAAGAGCACACGUCU [U8A U10C U11G C12G] | 1.23 |
